{"source": "paper doi:10.1101/2022.03.12.484092", "target": "SARS-CoV-2 nucleocapsid N-terminal domain (NTD) (SARS-CoV-2, UniProt P0DTC9 41-174)", "test": "fluorescence intensity titration", "data": [{"binder": "UCUCUAAACG (ssRNA)", "note": "[10-mer RNA]", "values": [{"measurement": "binding result", "result": "binds"}]}]}
